Measurements as given in patent US20250152742A1, “COMPOSITIONS AND METHODS FOR NEUROLOGICAL DISEASES” (Trames Bio, Inc., priority 2022, published 2025).

System: engineered chimeric receptor SEQ ID NO: 33 and its mutants (human α7-nAChR ligand binding domain / human GlyRα1 ion pore domain) in Lenti-X 293T cells
Assay: YFP fluorescence quenching anion reporter plate reader assay (percent quench, EC50)
Assay type: cell-based
Conditions: for YFP fluorescence quenching using CNL001 (percent quench): receptor named in row; for YFP fluorescence quenching using Varenicline, 3 nM var: ligand Varenicline 3 nM; for YFP fluorescence quenching using Varenicline, 30 nM var: ligand Varenicline 30 nM; for YFP fluorescence quenching using Varenicline, 300 nM var: ligand Varenicline 300 nM; for YFP fluorescence quenching using Varenicline, 500 nM var: ligand Varenicline 500 nM; for YFP fluorescence quenching using Varenicline, 1 uM var: ligand Varenicline 1 uM
Outline: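 Percent quench compares mean YFP signal over the final 10 s with the 15 s baseline before ligand, added in iodide-containing extracellular solution (pH 7.2). Cells were LX293T carrying a YFP anion reporter, transiently transfected with the channel construct; plates were preincubated 30 min at 37 °C.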

B1: CODA340: engineered receptor: L131E in SEQ ID NO: 33 (protein)
chain: MRCSPGGVWLALAASLLHVSLQGEFQRKLYKELVKNYNPLERPVANDSQPLTVYFSLSLLQIMDVDEKNQVLTTNIWLQMSWTDHYLQWNVSEYPGVKTVRFPDGQIWKPDILLYNSADERFDATFHTNVEVNSSGHCQYLPPGIFKSSCPMDLKNFPMDVQTCKLKFGSWSYGGWSLDLQMQEADISGYIPNGEWDLVGIPGKRSERFYECCKEPYPDVTFTVTMRRRMGYYLIQMYIPSLLIVILSWISFWINMDAAPARVGLGITTVLTMTTQSSGSRASLPKVSYVKAIDIWMAVCLLFVFSALLEYAAVNFVSRQHKELLRFRRKRRHHKSPMLNLFQEDEAGEGRFNFSAYGMGPACLQAKDGISVKGANNSNTTNPPPAPSKSPEEMRKLFIQRAKKIDKISRIGFPMAFLIFNMFYWIIYKIVRREDVHNQ
modifications: synthetic sequence of chimeric LGIC
YFP fluorescence quenching using CNL001 (percent quench) (1 nM CNL001, first column so headed): 76.413% | YFP fluorescence quenching using CNL001 (percent quench) (1 nM CNL001, second column so headed): 77.144% | YFP fluorescence quenching using TC-5619/Bradanicline (percent quench) (3 nM brd (TC-5619/Bradanicline)): 68.57% | YFP fluorescence quenching using CNL001 (percent quench) (10 nM CNL001, first column so headed): 78.258% | YFP fluorescence quenching using CNL001 (percent quench) (10 nM CNL001, second column so headed): 78.763% | YFP fluorescence quenching using TC-6683 (percent quench) (30 nM TC-6683): 30.14% | YFP fluorescence quenching using TC-5619/Bradanicline (percent quench) (30 nM brd (TC-5619/Bradanicline)): 76.85% | YFP fluorescence quenching using CNL001 (percent quench) (50 nM CNL001, first column so headed): 79.757% | YFP fluorescence quenching using CNL001 (percent quench) (50 nM CNL001, second column so headed): 79.327% | YFP fluorescence quenching using ABT-126 (percent quench) (50 nM abt (ABT-126)): 2.2% | YFP fluorescence quenching using CNL001 (percent quench) (100 nM CNL001, first column so headed): 79.011% | YFP fluorescence quenching using CNL001 (percent quench) (100 nM CNL001, second column so headed): 79.948% | YFP fluorescence quenching (percent quench) (100 nM CNL002): 49.97% | YFP fluorescence quenching using ABT-126 (percent quench) (100 nM abt (ABT-126)): 25.39% | YFP fluorescence quenching using AZD-0328 (percent quench) (100 nM azd0328): 82.48% | YFP fluorescence quenching using TC-6683 (percent quench) (300 nM TC-6683): 33.02% | YFP fluorescence quenching using ABT-126 (percent quench) (300 nM abt (ABT-126)): 36.48% | YFP fluorescence quenching using AZD-0328 (percent quench) (300 nM azd0328): 82.04% | YFP fluorescence quenching using TC-5619/Bradanicline (percent quench) (300 nM brd (TC-5619/Bradanicline)): 78.49% | YFP fluorescence quenching using CNL001 (percent quench) (1 uM CNL001, first column so headed): 79.855% | YFP fluorescence quenching using CNL001 (percent quench) (1 uM CNL001, second column so headed): 80.618% | YFP fluorescence quenching (percent quench) (1 uM CNL002): 67.8% | YFP fluorescence quenching using ABT-126 (percent quench) (1 uM abt (ABT-126)): 50.76% | YFP fluorescence quenching using TC-6683 (percent quench) (3 uM TC-6683): 41.68% | YFP fluorescence quenching (percent quench) (10 uM ach (acetylcholine)): 15.29% | YFP fluorescence quenching (percent quench) (30 uM CNL002): 64.58% | YFP fluorescence quenching using TC-6683 (percent quench) (30 uM TC-6683): 35.75% | YFP fluorescence quenching (percent quench) (30 uM ach (acetylcholine)): 66.56% | YFP fluorescence quenching using AZD-0328 (percent quench) (30 uM azd0328): 81.8% | YFP fluorescence quenching using TC-6683 (percent quench) (100 uM TC-6683): 24.32% | YFP fluorescence quenching (percent quench) (100 uM ach (acetylcholine)): 81.31% | YFP fluorescence quenching (percent quench) (1 mM ach (acetylcholine)): 80.77% | YFP fluorescence quenching (percent quench) (3 mM ach (acetylcholine)): 77.31% | YFP fluorescence quenching using Facinicline, 30 nM fac (ligand Facinicline 30 nM): 82.51 | YFP fluorescence quenching using Facinicline, 100 nM fac (ligand Facinicline 100 nM): 83.6 | YFP fluorescence quenching using Facinicline, 300 nM fac (ligand Facinicline 300 nM): 82.92 | YFP fluorescence quenching using Facinicline, 30 uM fac (ligand Facinicline 30 uM): 82.68 | YFP fluorescence quenching using TC-6987, 1 uM tc6987 (ligand TC-6987 1 uM): 80.13 | YFP fluorescence quenching using TC-6987, 10 uM tc6987 (ligand TC-6987 10 uM): 81.29 | YFP fluorescence quenching using TC-6987, 500 uM tc6987 (ligand TC-6987 500 uM): 79.6 | YFP fluorescence quenching using Varenicline, 3 nM var (first column): −4.061 | YFP fluorescence quenching using Varenicline, 3 nM var (second column): −0.568 | YFP fluorescence quenching using Varenicline, 30 nM var (first column): 62.964 | YFP fluorescence quenching using Varenicline, 30 nM var (second column): 63.631 | YFP fluorescence quenching using Varenicline, 300 nM var (first column): 74.912 | YFP fluorescence quenching using Varenicline, 300 nM var (second column): 75.084 | YFP fluorescence quenching using Varenicline, 500 nM var (first column): 76.346 | YFP fluorescence quenching using Varenicline, 500 nM var (second column): 75.876 | YFP fluorescence quenching using Varenicline, 1 uM var (first column): 75.805 | YFP fluorescence quenching using Varenicline, 1 uM var (second column): 74.856
